Laboratory results as given in patent US20060039859A1.
Square brackets hold non-standard residues; d marks the D form. Ends that are not written are not given here.

Biological target: Aβ1-40 fibrils (Homo sapiens (Human)) (UniProt P05067)
Assay: saturation radioligand binding to Aβ fibrils in PBS, RT 90 min, Centricon 100 kDa filtration

Chain of Aβ1-40 fibrils (Homo sapiens (Human)) (P05067 672-711 limits assumed): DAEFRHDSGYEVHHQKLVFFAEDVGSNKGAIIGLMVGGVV

B1: 99mTc-peptide (technetium-99m-labeled BBB permeant Aβ-targeted peptide KKLVFFAεKGC) (peptide)
peptide: [dK][dK][dL][dV][dF][dF][dA]KG[dC]
modifications: not fully specified (residue 8); printed as KKLVFFAεKGC; also: 99mTc chelated by εKGC (N3S core)
With B1 the Kd was 352 nM.
